Test results published in publication PMC3469519 (Molecular Biology of the Cell, 2012).
Read-outs that look alike come from different tables or passages of the source. Values belong to the binder of their own block, whether it stands above or below them.

Columns and labels:
Experiment in all cases: pull-down
full-length 6His-Bnr1 [1] = biological target: T1, full-length 6His-Bnr1 (S. cerevisiae, UniProt P40450 1-1375)
full-length 6His-Bnr1 [2] = biological target: T1, full-length 6His-Bnr1; remark: listed apart in the source
6His-Bnr1-758 (Bnr1-N) = biological target: T2, 6His-Bnr1-758 (Bnr1-N) (S. cerevisiae, UniProt P40450 1-758)
T2 sequence (looked up): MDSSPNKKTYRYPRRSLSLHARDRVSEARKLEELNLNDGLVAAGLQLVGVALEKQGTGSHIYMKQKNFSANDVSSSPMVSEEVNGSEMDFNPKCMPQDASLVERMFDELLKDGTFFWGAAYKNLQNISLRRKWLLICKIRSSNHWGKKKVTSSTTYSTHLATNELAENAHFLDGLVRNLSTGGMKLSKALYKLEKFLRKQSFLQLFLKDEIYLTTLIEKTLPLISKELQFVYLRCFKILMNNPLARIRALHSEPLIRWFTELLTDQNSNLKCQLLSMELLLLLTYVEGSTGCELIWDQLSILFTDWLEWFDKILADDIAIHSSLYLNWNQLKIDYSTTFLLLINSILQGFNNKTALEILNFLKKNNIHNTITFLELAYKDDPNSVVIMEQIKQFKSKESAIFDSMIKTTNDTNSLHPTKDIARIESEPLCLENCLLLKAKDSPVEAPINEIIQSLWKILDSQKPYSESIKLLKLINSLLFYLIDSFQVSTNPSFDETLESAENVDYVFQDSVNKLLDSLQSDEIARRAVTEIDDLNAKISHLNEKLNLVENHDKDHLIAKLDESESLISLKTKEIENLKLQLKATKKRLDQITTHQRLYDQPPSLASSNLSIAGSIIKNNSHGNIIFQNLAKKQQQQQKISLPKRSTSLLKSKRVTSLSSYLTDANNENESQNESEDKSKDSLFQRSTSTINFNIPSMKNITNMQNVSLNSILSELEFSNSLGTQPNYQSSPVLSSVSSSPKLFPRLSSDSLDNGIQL

binding result (full-length 6His-Bnr1 [1]): binds
B1: full-length GST-Gin4 (enzyme, S. cerevisiae, UniProt Q12263 1-1142, looked up)
chain: MAINGNSIPAIKDNTIGPWKLGETLGLGSTGKVQLARNGSTGQEAAVKVISKAVFNTGNVSGTSIVGSTTPDALPYGIEREIIIMKLLNHPNVLRLYDVWETNTDLYLVLEYAEKGELFNLLVERGPLPEHEAIRFFRQIIIGVSYCHALGIVHRDLKPENLLLDHKYNIKIADFGMAALETEGKLLETSCGSPHYAAPEIVSGIPYQGFASDVWSCGVILFALLTGRLPFDEEDGNIRTLLLKVQKGEFEMPSDDEISREAQDLIRKILTVDPERRIKTRDILKHPLLQKYPSIRDSKSIRGLPREDTYLTPLSESNSSIDATILQNLVILWHGRDPEGIKEKLREPGANAEKTLYALLYRFKCDTQKELIKQQQVKKRQSISSVSVSPSKKVSTTPQRRRNRESLISVTSSRKKPISFNKFTASSASSSNLTTPGSSKRLSKNFSSKKKLSTIVNQSSPTPASRNKRASVINVEKNQKRASIFSTTKKNKRSSRSIKRMSLIPSMKRESVTTKLMSTYAKLAEDDDWEYIEKETKRTSSNFATLIDEIFEYEKYEQIRKEKEELERKVREAKAREELERRRRKQEEKERARKLLEKEDLKRKQEELKKQIEIDISDLEQELSKHKEEKLDGNIRSISAPMENEEKNINHLEVDIDNILRRRNFSLQTRPVSRLDPGIMFSSPTEEVSPVEPKRTENERLTTEKKILETIRRSKFLGSSFNIDKELKLSKMEYPSIIAPQRLSEERVVSDSNDGYESLILPKDGNGVSQLKDSTATTAPVSDGRLRKISEIRVPQFTRKSRHFSESNKRLSVLSMYSTKESFTNLVDILKNGNLDVNNQQSQRIPTPRSADDSEFLFETVNEEAEYTGNSSNDERLYDVGDSTIKDKSALKLNFADRFNGSNEAKQTDNLHLPILPPLNGDNELRKQNSQEGDQAHPKIKSMIPESGSSSHTEKEEENEEKEEKKPEQHKQEEDQEKREKVVDDMEPPLNKSVQKIREKNAGSQAKDHSKDHLKEHKQDKNTAIGNGSFFRKFSKSSDKTMELYAKISAKQLFNGLEKLLRGWTQYGLKNIKSHPNNLTLTGKLSSDNIFSLRSTLFEVNIYPRGKMSVVQFKKVSGSFKAVKKLVNEVENVLNKEGVLQK

binding result (full-length 6His-Bnr1 [2]): binds | binding result (6His-Bnr1-758 (Bnr1-N)): binds
B2: pCAL-n-FLAG-Gin4-C (amino acids 540–1142) (domain or fragment, S. cerevisiae, UniProt Q12263 540-1142, looked up)
chain: SSNFATLIDEIFEYEKYEQIRKEKEELERKVREAKAREELERRRRKQEEKERARKLLEKEDLKRKQEELKKQIEIDISDLEQELSKHKEEKLDGNIRSISAPMENEEKNINHLEVDIDNILRRRNFSLQTRPVSRLDPGIMFSSPTEEVSPVEPKRTENERLTTEKKILETIRRSKFLGSSFNIDKELKLSKMEYPSIIAPQRLSEERVVSDSNDGYESLILPKDGNGVSQLKDSTATTAPVSDGRLRKISEIRVPQFTRKSRHFSESNKRLSVLSMYSTKESFTNLVDILKNGNLDVNNQQSQRIPTPRSADDSEFLFETVNEEAEYTGNSSNDERLYDVGDSTIKDKSALKLNFADRFNGSNEAKQTDNLHLPILPPLNGDNELRKQNSQEGDQAHPKIKSMIPESGSSSHTEKEEENEEKEEKKPEQHKQEEDQEKREKVVDDMEPPLNKSVQKIREKNAGSQAKDHSKDHLKEHKQDKNTAIGNGSFFRKFSKSSDKTMELYAKISAKQLFNGLEKLLRGWTQYGLKNIKSHPNNLTLTGKLSSDNIFSLRSTLFEVNIYPRGKMSVVQFKKVSGSFKAVKKLVNEVENVLNKEGVLQK
